This note sets out measurements from article PMC6508567.

By Kd is commonly meant the equilibrium constant for the complex coming apart.

Assay [1] deals with β-amylase WT (barley (Hordeum vulgare) cv. Harrington) (UniProt P16098). The assay can be described thus: SPR; β-amylase immobilised by amine coupling on a CM5 chip, serpin Z4 injected at 0.6, 0.5, 0.4, 0.3 and 0.2 μM; PBS; Biacore T200. (Surface plasmon resonance follows binding to a sensor surface in real time, without labels.)
The target is the same in assay [2].
For assay [3] the target is unchanged. This is another data set of the same source.
The target is the same in assay [4]. In words: MST; β-amylase labelled with an NHS-ester fluorescent dye (70 nM), unlabelled serpin Z4 from 40 μM to 1 nM; PBS with 0.1% Tween-20; Monolith NT.115; three replicates combined.
Assay [5] shares this target. This is another data set of the same source.

B1: serpin BsZx (natural protein)
chain: MATTDIRLSIAHQTRFAVRLASAISSPSHAKGSSGNAAFSPLSLHVALSLVAAGAAATRDQLAATLGAAEKGDAEGLHALAEQVVQVVLADASGAGGPRSFANVFVDSSLKLKPSFKDLVVGKYKGETQSVDFQTKAPEVAGQVNSWVEKITTGLIKEILPAGSVDSTTRLVLGNALYFKGSWTEKFDASKTKDEKFHLLDGSSVQTPFMSSTKKQYISSYDSLKVLKLPYQQGGDKRQFSMYILLPEAQDGLWNLANKLSTEPEFMEKHMPMQKVPVGQFKLPKFKISFGFEASDMLKGLGLQLPFSSEADLSEMVDSPAARSLYVSSVFHKSFVEVNEEGTEAAARTARVVTLRSLPVEPVKVDFVADHPFLFLIREDLTGVVLFVGHVFNPLVSA
As for B1, the inhibition factor X inh from the residual peptidase activity of chymotrypsin on casein, serpin:protease 2:1 in the assay with chymotrypsin was 0.88.

B2: serpin Z4 (natural protein)
chain: MATTLATDVRLSIAHQTRFALRLRSAISSNPERAAGNVAFSPLSLHVALSLITAGAAATRDQLVAILGDGGAGDAKELNALAEQVVQFVLANESSTGGPRIAFANGIFVDASLSLKPSFEELAVCQYKAKTQSVDFQHKTLEAVGQVNSWVEQVTTGLIKQILPPGSVDNTTKLILGNALYFKGAWDQKFDESNTKCDSFHLLDGSSIQTQFMSSTKKQYISSSDNLKVLKLPYAKGHDKRQFSMYILLPGAQDGLWSLAKRLSTEPEFIENHIPKQTVEVGRFQLPKFKISYQFEASSLLRALGLQLPFSEEADLSEMVDSSQGLEISHVFHKSFVEVNEEGTEAGAATVAMGVAMSMPLKVDLVDFVANHPFLFLIREDIAGVVVFVGHVTNPLISA
In assay [1], B2 displayed a Kd of 142 nM. In assay [2], the EC50 of serpin Z4 for the enhancement of β-amylase activity, Betamyl-3 method stood at 180 nM and the EC50 of serpin Z4 for the enhancement of β-amylase activity, DNSA method was 300 nM. The same molecule returned a β-amylase activity (DNSA) over 37-62°C with serpin Z4 at 1:5; at 50°C against β-amylase alone at optimal temperatures in assay [3] of 60%. Besides, the equilibrium dissociation constant (Kd) in assay [4] was found to be 200 nM. Moreover, in assay [5], the Vmax of β-amylase with serpin Z4 at a 1:5 molar ratio (Lineweaver-Burk), with or without DTT was found to be 2 fold.
